Data set [1] is described as follows: Murine hematotoxicity assay. It is filed as in vivo, BALB/c mice. The conditions noted are these: 3 mg/kg i.v. QW×4, compared to vehicle or MMAE treatment. How it is done: Murine hematotoxicity experiments were conducted at Charles River Laboratories and the care and use of animals was conducted in accordance with the regulations of the Association for Assessment and Accreditation of Laboratory Animal Care (AAALAC). Wild type BALB/c, female, 7-8 weeks, weighing approximately 18-22 g were randomized and dosed intravenously with control or test articles at a QW×4 schedule. Dosing volume was adjusted based on body weight and was administered at 10 mL/Kg. PDCs were dissolved in 25 mM Histidine 10% sucrose pH 7 and 3 mg/kg was administered. Free MMAE payload was also tested, and similarly dissolved in 25 mM Histidine 10% sucrose pH 7 and administered to the mice at a dose of […] by i.v. injection at a QW×4 schedule. 3 days following each dose, 150 μL of whole blood was collected via submandibular method and placed in K2 EDTA tubes stored on ice. Blood neutrophil counts were performed on the day of collection by IDEXX labs. Body weights were recorded twice a week until study endpoint.
As outlined in the material and methods of Example 1, wild type BALB/c, female, 7-8 weeks, weighing approximately 18-22 g were randomized and dosed intravenously with control or test articles at a QW×4 schedule. Dosing volume was adjusted based on body weight and was administered at 10 ml/Kg. […] Free MMAE payload was also tested, and similarly dissolved in 25 mM Histidine 10% sucrose pH 7 and administered to the mice at a dose of […] by i.v. injection at a QW×4 schedule. 3 days following each dose, 150 μL of whole blood was collected via submandibular method and placed in K2 EDTA tubes stored on ice. Blood neutrophil counts were performed on the day of collection by IDEXX labs. Body weights were recorded twice a week until study endpoint.

Data set [2] is described as follows: Murine plasma stability assay. It is filed as in vitro ADME. The conditions noted are these: mouse, 37° C., read-out: Murine plasma stability assay, T1/2. The protocol:
Frozen plasma was thawed at 37° C. and centrifuged at 4000 rpm to remove any clots and transferred to 96-well reaction plates by WuXi AppTec. Test compounds were added to the reaction plate at a final concentration of 2 μM and either stopped immediately or incubated at 37° C. for 5 minutes, 10 minutes, 30 minutes, 60 minutes, or 120 minutes. At the end of incubation, stop solution consisting of 200 ng/mL tolbutamide and 200 ng/mL labetalol in ACN was added to precipitate protein and mixed thoroughly. Samples were then transferred to a bioanalysis plate and shaken for 10 minutes prior to HPLC-MS/MS analysis of percent remaining compound.

The test system of a further data set is MDA-MB-231 tumor cells. In words: MDA-MB-231 murine xenograft efficacy model. It is filed as in vivo, BALB/c Nude mice. The protocol:
Murine xenograft experiments were conducted at WuXi AppTec and/or Charles River Laboratories and the care and use of animals was conducted in accordance with the regulations of the Association for Assessment and Accreditation of Laboratory Animal Care (AAALAC). MDA-MB-231 tumor cells (ATCC, Manassas, VA, cat #HTB-26) were grown and maintained in L15 medium supplemented with 10% heat inactivated fetal bovine serum, 1% Antibiotic-Antimycotic, and L-glutamine (2 mM) at 37° C. in an atmosphere in 5% CO2, 95% air. BALB/c Nude, female, 6-8 weeks, weighing approximately 18-22 g were purchased from Vital River Laboratory Animal Technology Co., LTD. Mice were inoculated subcutaneously at the right flank with MDA-MB-231 tumor cells (e.g., triple negative breast cancer cells) (10×10^6) in 0.2 mL of PBS with Matrigel (1:1) for tumor development. Animals were randomized and treatment was started when the average tumor volume reached approximately 150-200 mm^3 for the efficacy study. Dosing volume was adjusted based on body weight and was administered at 10 ml/Kg. […] Free MMAE payload was also tested, and similarly dissolved in 25 mM Histidine 10% sucrose pH 7 and one or more of the following doses, 0.6, 0.06 mg/kg, were administered to the mice i.v. at a QW×4 schedule. Tumor sizes were measured twice weekly in two dimensions using a caliper, and the volume in mm^3 calculated using the formula: V=0.5 a×b^2, where a and b are the long and short diameters of the tumor, respectively. TGI was calculated for each group using the formula: TGI (%)=[1−(Ti−T0)/(Vi−V0)]×100; where Ti is the average tumor volume of a treatment group on a given day, T0 is the average tumor volume of the treatment group on the first day of treatment, Vi is the average tumor volume of the vehicle control group on the same day with Ti, and V0 is the average tumor volume of the vehicle group on the first day of treatment.

Data set [3] concerns the target T1, Human SORT1 (78-755)-His (Acrobiosystems) (human, UniProt Q99523 78-755).
T1 construct: range 78-755; Amine-coupled to a CM5 chip in the SPR assay; not shown: His tag
T1 sequence (looked up): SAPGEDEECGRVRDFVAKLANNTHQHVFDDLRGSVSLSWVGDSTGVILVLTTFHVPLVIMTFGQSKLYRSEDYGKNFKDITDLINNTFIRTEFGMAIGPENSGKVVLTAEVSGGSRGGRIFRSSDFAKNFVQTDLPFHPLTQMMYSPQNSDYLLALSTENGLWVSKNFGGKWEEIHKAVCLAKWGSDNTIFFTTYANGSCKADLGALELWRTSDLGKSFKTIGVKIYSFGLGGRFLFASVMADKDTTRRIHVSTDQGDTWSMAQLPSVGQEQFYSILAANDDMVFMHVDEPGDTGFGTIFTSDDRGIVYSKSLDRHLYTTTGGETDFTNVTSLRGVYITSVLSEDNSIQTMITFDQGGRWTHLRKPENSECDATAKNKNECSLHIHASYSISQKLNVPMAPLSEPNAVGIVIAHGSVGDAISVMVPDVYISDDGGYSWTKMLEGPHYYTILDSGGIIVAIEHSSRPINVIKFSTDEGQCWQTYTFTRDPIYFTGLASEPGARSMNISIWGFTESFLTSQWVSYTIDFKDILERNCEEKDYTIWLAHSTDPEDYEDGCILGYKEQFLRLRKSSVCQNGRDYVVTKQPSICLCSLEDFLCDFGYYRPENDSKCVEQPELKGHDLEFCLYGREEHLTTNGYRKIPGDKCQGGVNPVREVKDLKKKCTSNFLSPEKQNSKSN
The experiment in a line: SPR (Biacore 8K), SORT1 amine-coupled to CM5 chip, PDC as analyte, 1:1 kinetic model. The protocol: SPR analysis was performed on Series S CM5 chips (Cytiva) using a Biacore 8K instrument (Cytiva). Sensorgrams were double-referenced by subtracting the response on both a reference flow cell and a blank sample. Human SORT1 (78-755)-His (Acrobiosystems) was diluted to 60 μg/mL in 10 mM sodium acetate pH 4.5 buffer and immobilized onto Series S CM5 chips using amine coupling at a flow rate of 10 μL/min for 45 s. The final immobilization level of SORT1 was between 2200-2600 RU.
For the multi-cycle kinetics analysis runs, a running buffer of 1×PBS pH 7.4, 0.005% Tween-20 was used. Five start-up cycles and a blank cycle preceded each analysis run. The runs were performed by sequential injections of analyte (0-25 nM) with a 150 seconds (s) association and 300 s dissociation at a flow rate of 30 μL/min, followed by a regeneration with 2 M MgCl₂ for 200 s at a flow rate of 10 μL/min. The kinetic rate constants (kₐ and kd) and the equilibrium binding constant (Kd) were calculated using a 1:1 kinetic binding model on the Biacore Insight Evaluation Software (Cytiva).
For orientation: In SPR one partner is held on a chip, and binding of the other changes the refractive index at the surface.

*1 amine or outer side, *2 acyl side, *3 side chain or, on linkers, in order; H or OH if unused. Bridges are numbered along the chain shown (N, C = ends). Side-chain parts run from the residue outwards. [ ]: non-standard residue; d: D form. VCPAB = valine-citrulline p-aminobenzylcarbamate linker, CC(C)[C@H](N[*:1])C(=O)N[C@@H](CCCNC(N)=O)C(=O)Nc1ccc(COC(=O)[*:2])cc1; tBuAla = CC(C)(C)C[C@H](N)C(=O)O; MMAE = monomethyl auristatin E; Tle = CC(C)(C)[C@H](N)C(=O)O; Nle = CCCC[C@H](N)C(=O)O; βAla = NCCC(=O)O; Sar = CNCC(=O)O

Take `CC[C@H](C)[C@@H]([C@@H](CC(=O)N1CCC[C@H]1[C@H](OC)[C@@H](C)C(=O)N[C@H](C)[C@@H](O)c1ccccc1)OC)N(C)C(=O)[C@@H](NC(=O)[C@H](C(C)C)N(C)C(=O)OCc1ccc(NC(=O)[C@H](CCCNC(N)=O)NC(=O)[C@@H](NC(=O)CCCC(=O)NCCC(=O)N(C)CC(=O)N(C)CC(=O)N(C)CC(=O)N(C)CC(=O)N[C@@H](C)C(=O)N2CCC[C@H]2C(=O)N[C@@H](CCCNC(=N)N)C(=O)N[C@@H](Cc2c[nH]c3ccccc23)C(=O)N[C@@H](CC(=O)O)C(=O)N[C@@H](C)C(=O)N2CCC[C@H]2C(=O)N[C@@H](CC(C)C)C(=O)N[C@@H](CCCNC(=N)N)C(=O)N[C@@H](CC(=O)O)C(=O)N2CCC[C@H]2C(=O)N[C@@H](C)C(=O)N[C@@H](CC(C)C)C(=O)N[C@@H](CCCNC(=N)N)C(=O)N[C@@H](CCC(N)=O)C(=O)N[C@H](C(=O)N[C@@H](CC2CCC2)C(=O)O)C(C)(C)C)C(C)C)cc1)C(C)C` [Arb-SAR-Q15-PDC]: the blood neutrophil counts entry in data set [1] is recorded as “reduced neutrophil counts”. Further, in data set [2], the half-life at 2 μM worked out at 49.7 min. The “tumor growth inhibited relative to vehicle” value in the data set on MDA-MB-231 tumor cells (3 mg/kg i.v. QW×4, day 22 (Example 8)) amounted to 98%. Besides, the body weight loss result in the data set with MDA-MB-231 tumor cells (Example 8, PDC 3 mg/kg, free MMAE 0.6 mg/kg, i.v. QW×4) was “body weight loss tracked each other”.

B1: Arb_cyclic_G23-PDC (peptide)
peptide: Ac-RWCENK([Sar-Sar-Sar-Sar-βAla-VCPAB-MMAE])R[Nle]FTCRQ[Tle][tBuAla]-OH
modifications: disulfide 3-11
notes: C-term COOH
For B1, the Kd (as a rule, the constant that tells how readily two partners part at equilibrium) in data set [3] was 0.89 nM.

The record behind these values is patent US20240285785A1, “TARGETING SORTILIN” (priority 2022, published 2024).
